Four molecules from US20230029835A1 (KEYMED BIOSCIENCES, published 2023) can be followed below.

Experiment [1] concerns the target T1, human TSLP recombinant protein (human, UniProt Q969D9 29-159, biotinylated in the blocking and cell-binding assays (sites not given)). Description: cell-based or functional assay.
The target in experiment [2] is T1, human TSLP recombinant protein. The experiment can be described thus: cell-based or functional assay. This is another data set of the same source.
Experiment [3] has the same target. Description: ELISA on coated human TSLP. On the technique in general: An ELISA detects its analyte on a solid surface through an enzyme-linked reagent.
Procedure: (§1) The plate was washed three times with PBS and blocked by adding 200 μL/well of PBS containing 2% skim milk for 1 hour. […] After washing with PBST and PBS three times, respectively, 100 μL of TMB substrate was added to each well for color development at 37° C. for 10 minutes, the reaction was terminated with 50 μL of 2M sulfuric acid solution per well, and the absorbance was read at a wavelength of 450 nm.
Experiment [4] concerns the target T2, Cynomolgus macaques TSLP recombinant protein (Cynomolgus macaques, UniProt Q969D9 29-159 (human entry), limits assumed, biotinylated in the blocking assays (sites not given)).
T2 construct: also called cyTSLP; biotinylated Cynomolgus macaques TSLP protein
T2 chain: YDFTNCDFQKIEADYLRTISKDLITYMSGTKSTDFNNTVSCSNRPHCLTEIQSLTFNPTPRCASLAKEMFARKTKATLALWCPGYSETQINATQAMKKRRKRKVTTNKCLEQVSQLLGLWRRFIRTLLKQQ
The experiment can be described thus: ELISA on coated cynomolgus TSLP.

Experiment [5] addresses T1, human TSLP recombinant protein. Description: competition ELISA, biotin-human TSLP to coated human TSLPR-Fc.
Procedure: Human TSLPR recombinant protein was coated onto a 96-well microtiter plate at 1 μg/mL in carbonate buffer overnight at 4° C. The plate was washed three times with PBS and blocked by adding 200 μL/well of PBS containing 2% skim milk for 1 hour. […] The 96-well plate was washed three times with PBS, and 100 μL of the incubated mixture was added to each well and incubated for 1 hour at room temperature. After washing with PBST and PBS three times, respectively, 100 μL of SA-HRP was added to each well and incubated at room temperature for 30 minutes in the dark. After washing with PBST and PBS three times, respectively, 100 μL of TMB substrate was added to well for color development at 37° C. for 10 minutes, the reaction was terminated with 50 μL of 2M sulfuric acid solution per well, and the absorbance was read at a wavelength of 450 nm.
Experiment [6] shares this target. Description: SPR BIAcore T200, antibody captured on Protein A, human TSLP injected.
Procedure: After each injection cycle, the Protein A chip surface was regenerated with regeneration buffer 10 mM glycine (pH 2.0) at a flow rate of 30 μL/min.
The association rate constant (ka) and dissociation rate constant (kd) and equilibrium dissociation constant KD were analyzed by fitting the resulting data to a Langmuir 1:1 kinetics theoretical model using BIAevaluation software.
Experiment [7] has as its target T2, Cynomolgus macaques TSLP recombinant …. Description: competition ELISA, biotin-cynomolgus TSLP to coated cynomolgus TSLPR-Fc.
Procedure: Cynomolgus macaques TSLPR recombinant protein was coated onto a 96-well microtiter plate at 1 μg/mL in carbonate buffer overnight at 4° C. The plate was washed three times with PBS and blocked by adding 200 μL/well of PBS containing 2% skim milk for 1 hour. […] The 96-well plate was washed three times with PBS, and 100 μL of the incubated mixture was added to each well and incubated for 1 hour at room temperature. After washing with PBST and PBS three times, respectively, 100 μL of SA-HRP was added to each well and incubated at room temperature for 30 minutes in the dark. After washing with PBST and PBS three times, respectively, 100 μL of TMB substrate was added to well for color development at 37° C. for 10 minutes, the reaction was terminated with 50 μL of 2M sulfuric acid solution per well, and the absorbance was read at a wavelength of 450 nm.
The target is the same in experiment [8]. Description: ELISA on coated cynomolgus TSLP.
Procedure: as §1
The target in experiment [9] is T1, human TSLP recombinant protein. The experiment can be described thus: ELISA, human TSLP coated at 1 ug/mL, anti-human IgG Fc-HRP, A450.
Procedure: as §1

B1: 80D12 chimeric antibody (antibody, V domains shown)
VH: QVQLKQSGPQLVRPGASVKISCKASGYSFTSYWMHWVKQRPGQGLEWIGMIDPSDSETTLNQKFKDKATLTVDKSSTTAYMQLSSPTSEDSAVYYCARSLDGYYDYWGQGTTLTVSS
VL: DVQMIQSPASLSASVGETVTITCRTSENIYSYLAWYQQKQGKSPQLLVYFAKTLTDGVPSRFSGSGSGTQFSLKINSLQPEDFGSYYCQHHYGTPWTFGGGTKLEIK
As a reminder, the EC50 is the concentration needed to bring the measured effect to its halfway point. The term IC50 denotes the concentration at which inhibition is half-maximal. The Kd is the constant that tells how readily two partners part at equilibrium. One may read the koff as the rate constant with which the complex falls apart. By kon is commonly meant a measure of how fast the partners come together. On to B1, for which, in [1], the “Inhibition IC50 of cell proliferation” value was determined as 44.7 nM. Besides, the “Inhibition IC50 of STAT5 reporter gene” value in [2] is 3.84 nM. The concentration giving a half-maximal response (EC50) in [3] came to 0.21 nM. In addition, the EC50 in [4] is 0.35 nM. For the same molecule, in experiment [5], the IC50 is 2.44 nM. In experiment [6], the Kd came to 0.00596 nM, the koff amounted to 2.84e-05 s⁻¹ and the kon worked out at 4.77e+06 M⁻¹ s⁻¹. The IC50 in [7] came to 0.63 nM.

B2: 39G5-H8 chimeric antibody (antibody, V domains shown)
VH: QVQLLQSGPQLVRPGASVKISCKASGYSFISYWIHWVKQRPGQGLEWIGIIDPSDSDTSLNQKFKDKATLTVDKSSTTAYIQLSSPTSEDSAVYYCARSLDGYYDYWGQGTTLTVSS
VL: DIQMTQSPASLSASVGETVTITCRASENIYSYLAWYQQKQGKSPQLLVYNARTLPEGVPSRFSGSGSGTQFSLKINSLQPEDFGIYYCQHHYTTPWTFGGGTKLEIK
Turning to B2, in experiment [1], the “Inhibition IC50 of cell proliferation” value was found to be 39.1 nM. Besides, the “Inhibition IC50 of STAT5 reporter gene” value in [2] stood at 3.33 nM. Also, the half-maximal effective concentration (EC50) in [3] amounted to 0.15 nM. Further, in experiment [4], the 50% effective concentration (EC50) was 0.54 nM. In addition, in experiment [5], the IC50 was found to be 3.42 nM. Further, in experiment [6], the Kd was 0.0095 nM, the off-rate constant (koff) was determined as 4.6e-05 s⁻¹ and the kon is 4.84e+06 M⁻¹ s⁻¹. Also, the 50% inhibitory concentration (IC50) in [7] worked out at 1.74 nM.

B3: Ab12 (antibody, V domains shown)
VH: QVQLVQSGAEVKKPGSSVKVSCKASGYTFTDYWMHWVRQAPGQGLEWMGTIDNSDSDTSLNQKFQGRVTITADESSSTAYMELSSLRSEDTAVYYCARSLDGYYDYWGQGTLVTVSS
VL: DIQMTQSPSSLSASVGDRVTITCRASENIYSYLAWYQQKPGKAPKLLIYNARTLPEGVPSRFSGSGSGTDFTLTISSLQPEDFATYYCQHHYTTPWTFGQGTKVEIK
notes: Humanized; also called h39G5VHv12/h39G5VKv1
For B3, the binding result in [8] and in experiment [9] was “binds” in each case.

B4: Ab14 (antibody, V domains shown)
VH: EVQLVQSGAEVKKPGESLKISCKASGYTFTDYWMHWVRQMPGKGLEWMGTIDNSDSDTSLNQSFQGHVTISADKSISTAYLQWSSLKASDTAMYYCARSLDGYYDYWGQGTLVTVSS
VL: DIQMTQSPSSLSASVGDRVTITCRASENIYSYLAWYQQKPGKAPKLLIYNARTLPEGVPSRFSGSGSGTDFTLTISSLQPEDFATYYCQHHYTTPWTFGQGTKVEIK
notes: Humanized; also called h39G5VHv14/h39G5VKv1
For B4, the binding result in experiment [8] is given as “no binding”; in experiment [9] it was “binds”.
